Values joined by “and” are separate entries in the source; they are usually repeats but may differ in a detail not shown here. Equal values may be shown once. No end group written: not given here.
Assays:
[1] = molecular target: TM24 peptide expressed as a EYFP fusion in COS cells; assay: FRAP
native gel or EMSA = molecular target: the molecule itself; assay: native gel or EMSA
FRAP = molecular target: the molecule itself; assay: FRAP
[2] = molecular target: the molecule itself; assay: SDS-PAGE without cross-linker

Work on “TM24 peptide expressed as a EYFP fusion in COS cells (domain or fragment)” yielded a stoichiometry N [1] of 7.

B1: CX3CL1-EYFP fusion protein (L929 cells stably expressing CX3CL1, L_(CX3CL1)) (natural protein)
chain: QHHGVTKCNITCSKMTSKIPVALLIHYQQNQASCGKRAIILETRQHRLFCADPKEQWVKDAMQHLDRQAAALTRNGGTFEKQIGEVKPRTTPAAGGMDESVVLEPEATGESSSLEPTPSSQEAQRALGTSPELPTGVTGSSGTRLPPTPKAQDGGPVGTELFRVPPVSTAATWQSSAPHQPGPSLWAEAKTSEAPSTQDPSTQASTASSPAPEENAPSEGQRVWGQGQSPRPENSLEREEMGPVPAHTDAFQDWGPGSMAHVSVVPVSSEGTPSREPVASGSWTPKAEEPIHATMDPQRLGVLITPVPDAQAATRRQAVGLLAFLGLLFCLGVAMFTYQSLQGCPRKMAGEMAEGLRYIPRSCGSNSYVLVPV
With B1 the “stoichiometry N” value (native gel or EMSA) was ~3 and 5 and ≥ 3.

KKVGLLAFLGLLFCLGVAMFTYKK (also: FITC conjugated, position not given here) [TM24-FITC]: binds (FRAP).

With KKVGLLAFLGLLFCLGVAMFTYKK [TM24 peptide (20 residues of the CX3CL1 TM domain with 2 lysines added at each end)] the “stoichiometry N” value [2] was 2.
